{"source": "patent US20140096274A1", "about": "(published 2014)", "key": {"murine RANK-Fc": {"biological_target": "T1, murine RANK-Fc (mouse, UniProt O35305 31-214)", "T1 construct": "also called mRANK-Fc; mRANK-FC; not shown: Fc part of the bought fusion; not described", "T1 sequence (looked up)": "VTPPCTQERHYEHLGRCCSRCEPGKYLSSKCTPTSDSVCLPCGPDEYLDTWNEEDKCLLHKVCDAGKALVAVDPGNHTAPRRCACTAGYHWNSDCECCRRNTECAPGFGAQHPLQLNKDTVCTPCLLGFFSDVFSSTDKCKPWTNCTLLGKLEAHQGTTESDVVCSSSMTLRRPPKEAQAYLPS", "assay": "SPR (Biacore T100) single cycle kinetics, mRANK-Fc captured on protein A at 200 RU, 1:1 fit", "method": "(§1) FIG. 35. Binding of dimeric human RANKL variants and human RANKL WT towards murine RANK at 37° C. (left) or human RANK (right) receptor. Receptors were captured at a level of 200 RU using a Protein A (Sigma) modified surface of a CM5 chip (Biacore GE Lifesciences). Receptor binding curves of purified human hD1.3 and hD2.3 variants and human RANKL WT (E. coli produced, R&D systems) were recorded in real time using the single cycle kinetics method (Biacore) using a Biacore T100 (Biacore, GE Lifescience). Ligands were injected in 5 consecutive injection from 1 nM to 100 nM. After subtracting the signal from the reference channel and buffer injections the resulting binding curves were fitted to a 1:1 interaction model using the BiaEvaluation software (Biacore GE Lifescience). Flow rate was 50 ul/min and protein A surface was regenerated using 10 mM Glycine pH 2 solution, murine RANK-Fc and human RANK-Fc were obtained from R&D systems. Running buffer was HBS-EP+ (Biacore GE Lifescience)."}, "human RANK-Fc": {"biological_target": "T2, human RANK-Fc (human, UniProt Q9Y6Q6 30-212)", "T2 construct": "also called hRANK-Fc; hRANK-FC; not shown: Fc part of the bought fusion; not described", "T2 sequence (looked up)": "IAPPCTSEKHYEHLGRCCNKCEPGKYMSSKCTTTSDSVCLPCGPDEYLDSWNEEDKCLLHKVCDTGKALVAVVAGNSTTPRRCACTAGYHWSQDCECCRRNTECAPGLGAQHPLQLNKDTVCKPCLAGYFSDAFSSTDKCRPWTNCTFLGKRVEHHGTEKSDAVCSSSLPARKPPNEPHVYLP", "assay": "SPR (Biacore T100) single cycle kinetics, hRANK-Fc captured on protein A at 200 RU, 1:1 fit", "method": "as §1"}}}
{"binder": "human RANKL heterodimeric variant hD1-3 (ligand, Heterodimer expressed in E. coli BLR (DE3); copies: 1 + 1) chain 1: MGSSHHHHHHSQDPEAQPFAHLTINATDIPSGSHKVSLSSWYHDRGWADISNMTFSNGKLIVNQDGFYYLYANISFRHHETSGDLATEYLQLMVYVTKTSEKIPSSHTLMKGGSTKYWSGNSEFHYYSINVGGFFKLRSGEEISIEVSNPSLLDPDQDATYFGAFKVRDID chain 2: MEAQPFAHLTINATDIPSGSHKVSLSSWYHDRGWAKISNMTFSNGKLIVNQDGYYYLYANICFRHHETSGDLATEYLQLMVYVTKTSEKIPSSHTLMDGGSTKYWSGNSEFHFYSINVGGYFKLRSGEEISIEVSNPSLLDPDQDATYFGAFKVRDID", "values": [{"measurement": "Kd", "setting": "murine RANK-Fc", "value": 0.211, "unit": "nM"}, {"measurement": "koff", "setting": "murine RANK-Fc", "value": 0.00019, "unit": "s⁻¹"}, {"measurement": "kon", "setting": "murine RANK-Fc", "value": 899000, "unit": "M⁻¹ s⁻¹"}, {"measurement": "Kd", "setting": "human RANK-Fc", "value": 0.345, "unit": "nM"}, {"measurement": "koff", "setting": "human RANK-Fc", "value": 0.000275, "unit": "s⁻¹"}, {"measurement": "kon", "setting": "human RANK-Fc", "value": 798000, "unit": "M⁻¹ s⁻¹"}]}
{"binder": "human RANKL heterodimeric variant hD2-3 (ligand, Heterodimer expressed in E. coli BLR (DE3); also called hRANKL D2.3; copies: 1 + 1) chain 1: MGSSHHHHHHSQDPEAQPFAHLVINATDIPSGSHKVSLSSWYHDRGWAKISNMTFSNGKLIVNQDGFYYLYANISFRHHETSGKLATEYLQLMVYVTKTSEKIPSSHTLMKGGSTKYWSGNSEFHYYSINVGGFFKLRSGEEISIEVSNPSLLDPDQDATYFGAFKVRDID chain 2: MEAQPFAHLVINATDIPSGSHKVSLSSWYHDRGWAKISNMTFSNGKLIVNQDGYYYLYANICFRHHETSGKLATEYLQLMVYVTKTSEKIPSSHTLMDGGSTKYWSGNSEFHFYSINVGGYFKLRSGEEISIEVSNPSLLDPDQDATYFGAFKVRDID", "values": [{"measurement": "Kd", "setting": "murine RANK-Fc", "value": 0.0504, "unit": "nM"}, {"measurement": "koff", "setting": "murine RANK-Fc", "value": "8.32e-05", "unit": "s⁻¹"}, {"measurement": "kon", "setting": "murine RANK-Fc", "value": "1.65e+06", "unit": "M⁻¹ s⁻¹"}, {"measurement": "Kd", "setting": "human RANK-Fc", "value": 0.0766, "unit": "nM"}, {"measurement": "koff", "setting": "human RANK-Fc", "value": "8.87e-05", "unit": "s⁻¹"}, {"measurement": "kon", "setting": "human RANK-Fc", "value": "1.16e+06", "unit": "M⁻¹ s⁻¹"}]}
{"binder": "trimeric human RANKL WT (E. coli produced, R&D Systems) (ligand, UniProt O14788 140-317, looked up, Bought protein; also called hWT) IRAEKAMVDGSWLDLAKRSKLEAQPFAHLTINATDIPSGSHKVSLSSWYHDRGWAKISNMTFSNGKLIVNQDGFYYLYANICFRHHETSGDLATEYLQLMVYVTKTSIKIPSSHTLMKGGSTKYWSGNSEFHFYSINVGGFFKLRSGEEISIEVSNPSLLDPDQDATYFGAFKVRDID", "values": [{"measurement": "Kd", "setting": "murine RANK-Fc", "value": 0.136, "unit": "nM"}, {"measurement": "koff", "setting": "murine RANK-Fc", "value": 0.000142, "unit": "s⁻¹"}, {"measurement": "kon", "setting": "murine RANK-Fc", "value": "1.04e+06", "unit": "M⁻¹ s⁻¹"}, {"measurement": "Kd", "setting": "human RANK-Fc", "value": 0.267, "unit": "nM"}, {"measurement": "koff", "setting": "human RANK-Fc", "value": 0.00023, "unit": "s⁻¹"}, {"measurement": "kon", "setting": "human RANK-Fc", "value": 861000, "unit": "M⁻¹ s⁻¹"}]}
